This is an account of results in US20230265215A1 (OMEROS, published 2023).

By EC50 (read off the curve) is commonly meant the concentration at which the effect is half-maximal. The low end stands for a more potent agent, the high end for a less potent agent.

The target of one test is T1, MASP-1 (human, UniProt P48740 20-699, limits assumed).
T1 construct: Species read from 'Recombinant human MASP-2 or C1r, C1s, CFD, MASP-1 and MASP-3'
T1 sequence (looked up): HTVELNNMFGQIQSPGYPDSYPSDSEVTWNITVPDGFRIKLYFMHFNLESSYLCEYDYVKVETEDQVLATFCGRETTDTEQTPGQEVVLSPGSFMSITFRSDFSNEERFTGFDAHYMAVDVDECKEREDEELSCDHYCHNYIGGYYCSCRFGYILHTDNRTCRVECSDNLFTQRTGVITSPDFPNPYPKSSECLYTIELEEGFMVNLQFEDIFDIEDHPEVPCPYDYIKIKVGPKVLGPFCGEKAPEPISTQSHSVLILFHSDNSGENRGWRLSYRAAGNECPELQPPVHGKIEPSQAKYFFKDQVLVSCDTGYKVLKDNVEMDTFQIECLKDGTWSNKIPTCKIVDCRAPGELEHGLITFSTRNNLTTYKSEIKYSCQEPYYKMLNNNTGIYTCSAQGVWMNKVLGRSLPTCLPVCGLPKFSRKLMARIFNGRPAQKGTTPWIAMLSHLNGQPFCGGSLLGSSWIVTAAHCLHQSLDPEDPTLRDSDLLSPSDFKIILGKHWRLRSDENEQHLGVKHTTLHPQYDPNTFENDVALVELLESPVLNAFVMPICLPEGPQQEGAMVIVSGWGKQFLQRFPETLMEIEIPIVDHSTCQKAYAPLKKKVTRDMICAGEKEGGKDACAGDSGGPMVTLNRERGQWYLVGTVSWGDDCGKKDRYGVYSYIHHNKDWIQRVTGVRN
The test is described as follows: solid phase ELISA, against human MASP-2 as reference. The source says: (§1) The apparent dissociation constant (KD) was estimated by nonlinear regression using a 4-parameter logistic model.
(§2) Fold selectivity calculated as KD(related serine protease)/mean KD(MASP-2).
(ELISA stands for enzyme-linked immunosorbent assay.)

For a further test, the target named is T2, MASP-3 (human, UniProt P48740-2 20-728, limits assumed).
T2 construct: Species read from 'Recombinant human MASP-2 or C1r, C1s, CFD, MASP-1 and MASP-3'
T2 sequence (looked up): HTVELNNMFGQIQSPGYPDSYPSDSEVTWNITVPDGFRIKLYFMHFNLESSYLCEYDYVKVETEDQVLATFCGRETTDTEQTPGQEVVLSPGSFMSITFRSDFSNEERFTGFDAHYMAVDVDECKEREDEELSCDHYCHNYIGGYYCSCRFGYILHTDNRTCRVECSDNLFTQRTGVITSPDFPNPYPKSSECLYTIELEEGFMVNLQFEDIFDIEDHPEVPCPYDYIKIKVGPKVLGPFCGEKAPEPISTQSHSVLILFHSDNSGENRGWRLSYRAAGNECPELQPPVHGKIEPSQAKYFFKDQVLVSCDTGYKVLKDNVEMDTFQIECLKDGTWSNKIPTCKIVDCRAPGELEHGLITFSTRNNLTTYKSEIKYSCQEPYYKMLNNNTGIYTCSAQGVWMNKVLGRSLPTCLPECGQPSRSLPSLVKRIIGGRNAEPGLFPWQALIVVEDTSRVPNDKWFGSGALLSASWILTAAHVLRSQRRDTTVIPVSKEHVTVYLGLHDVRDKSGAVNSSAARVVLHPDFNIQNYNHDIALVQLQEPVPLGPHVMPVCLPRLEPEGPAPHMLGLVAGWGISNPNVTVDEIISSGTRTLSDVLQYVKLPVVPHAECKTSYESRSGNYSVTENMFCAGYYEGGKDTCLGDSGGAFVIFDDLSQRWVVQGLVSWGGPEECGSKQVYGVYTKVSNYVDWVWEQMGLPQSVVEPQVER
Described as above.
From the text: as §1, §2

The target in another test is T3, C1r (human, UniProt P00736 18-705, limits assumed).
T3 construct: Species read from 'Recombinant human MASP-2 or C1r, C1s, CFD, MASP-1 and MASP-3'
T3 sequence (looked up): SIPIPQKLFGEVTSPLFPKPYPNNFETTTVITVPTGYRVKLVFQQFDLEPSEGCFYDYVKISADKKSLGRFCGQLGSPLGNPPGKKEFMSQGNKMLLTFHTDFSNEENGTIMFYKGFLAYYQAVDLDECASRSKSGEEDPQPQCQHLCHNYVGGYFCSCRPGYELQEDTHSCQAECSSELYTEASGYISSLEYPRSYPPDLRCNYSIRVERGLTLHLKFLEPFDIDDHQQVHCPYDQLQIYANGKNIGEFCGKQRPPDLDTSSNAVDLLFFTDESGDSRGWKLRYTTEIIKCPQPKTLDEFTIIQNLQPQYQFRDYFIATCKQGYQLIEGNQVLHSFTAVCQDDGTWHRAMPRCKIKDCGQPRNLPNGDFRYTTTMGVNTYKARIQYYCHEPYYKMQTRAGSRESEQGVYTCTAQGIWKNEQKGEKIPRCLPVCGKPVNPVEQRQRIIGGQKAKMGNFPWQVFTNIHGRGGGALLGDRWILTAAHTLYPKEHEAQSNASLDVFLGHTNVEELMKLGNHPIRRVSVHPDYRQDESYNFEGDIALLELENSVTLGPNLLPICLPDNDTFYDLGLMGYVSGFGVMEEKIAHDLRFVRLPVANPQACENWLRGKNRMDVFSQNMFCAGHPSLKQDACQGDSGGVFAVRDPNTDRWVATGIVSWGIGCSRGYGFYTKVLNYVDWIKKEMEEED
The test is described as above.
From the text: as §1, §2

Test [1] deals with T4, human MASP-2 (CCP1-CCP2-SP fragment) (human, UniProt O00187 287-686, limits assumed).
T4 construct: also called human MASP-2 (CCP1/2/SP fragment); hMASP-2-CCP1-CCP2-SP
T4 sequence (O00187 287-686 limits assumed): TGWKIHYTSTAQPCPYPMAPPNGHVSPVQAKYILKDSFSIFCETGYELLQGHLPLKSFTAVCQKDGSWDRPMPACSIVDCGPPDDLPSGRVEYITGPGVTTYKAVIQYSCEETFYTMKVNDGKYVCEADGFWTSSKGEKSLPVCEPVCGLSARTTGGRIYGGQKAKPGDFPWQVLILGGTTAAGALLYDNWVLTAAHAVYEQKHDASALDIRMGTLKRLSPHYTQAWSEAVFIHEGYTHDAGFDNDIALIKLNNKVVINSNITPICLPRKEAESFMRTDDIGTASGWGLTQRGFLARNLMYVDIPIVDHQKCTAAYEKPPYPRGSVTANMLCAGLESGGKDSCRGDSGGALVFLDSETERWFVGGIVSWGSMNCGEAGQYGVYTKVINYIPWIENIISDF
Briefly: solid phase ELISA, plate coated with human MASP-2 (CCP1-CCP2-SP fragment), bound mAb detected with goat anti-human IgG-HRP, OD450. As to the method:
To measure binding of the 26 purified recombinant MASP-2 antibodies to human MASP-2 (CCP1-CCP2-SP fragment), a solid phase ELISA assay was carried out as follows. A MaxiSorp ELISA plate was coated with human MASP-2 (CCP1/2/SP fragment) at 1.0 μg/mL in carbonate/bi-carbonate buffer overnight at 4° C. […] The plate was washed (PBS-T, 0.05%) and a detection antibody was added (goat anti-human IgG-HRP) for one hour at room temperature. After another wash (PBS-T, 0.05%) the plate was developed (5 minutes) with OPT EIA TMB (BD Biosciences #555214). Absorbance reading at A450 was measured using the Spectramax M5e plate reader.
A solid phase ELISA assay was carried out to measure binding of the three selected MASP-2 inhibitory antibodies to human MASP-2 (CCP1-CCP2-SP fragment), as described in Example 1.

B1: mAb OMS858 (humanized anti-MASP-2 antibody) (antibody, V domains shown)
VH: QVQLVQSGAEVKKPGASVKVSCKASGYTFTNHHMHWLRQAPGQGLEWIGDIDASDSETHYIEKFKDRATLTIDKSSSTAYMELSSLRSEDTAVYYCARGDITTTLRYFDVWGQGTLVTVSS
VL: DIQLTQSPSSLSASVGDRVTITCSASSSVRYMYWYQQKPGKAPKLLIYDTSNLASGVPSRFSGSGSGTDNTLTISSLQPEDFATYYCQQWSSYPLTFGQGTKVEIKR
notes: also called antibody OMS858; biotinylated OMS858
On to B1, for which the “Fold selectivity (KD related serine protease / mean KD MASP-2)” value in the test with MASP-1, with MASP-3 and with C1r was > 2000 fold throughout. Besides, the concentration for a half-maximal effect (EC50 (read off the curve)) in test [1] was ~0.2 nM.
